IntAct's records for PubMed 9853758

B1: Phosphate system positive regulatory protein PHO4 (Saccharomyces cerevisiae), P07270 (parent)
chain: MGRTTSEGIHGFVDDLEPKSSILDKVGDFITVNTKRHDGREDFNEQNDELNSQENHNSSENGNENENEQDSLALDDLDRAFELVEGMDMDWMMPSHAHHSPATTATIKPRLLYSPLIHTQSAVPVTISPNLVATATSTTSANKVTKNKSNSSPYLNKRRGKPGPDSATSLFELPDSVIPTPKPKPKPKQYPKVILPSNSTRRVSPVTAKTSSSAEGVVVASESPVIAPHGSSHSRSLSKRRSSGALVDDDKRESHKHAEQARRNRLAVALHELASLIPAEWKQQNVSAAPSKATTVEAACRYIRHLQQNVST
partner: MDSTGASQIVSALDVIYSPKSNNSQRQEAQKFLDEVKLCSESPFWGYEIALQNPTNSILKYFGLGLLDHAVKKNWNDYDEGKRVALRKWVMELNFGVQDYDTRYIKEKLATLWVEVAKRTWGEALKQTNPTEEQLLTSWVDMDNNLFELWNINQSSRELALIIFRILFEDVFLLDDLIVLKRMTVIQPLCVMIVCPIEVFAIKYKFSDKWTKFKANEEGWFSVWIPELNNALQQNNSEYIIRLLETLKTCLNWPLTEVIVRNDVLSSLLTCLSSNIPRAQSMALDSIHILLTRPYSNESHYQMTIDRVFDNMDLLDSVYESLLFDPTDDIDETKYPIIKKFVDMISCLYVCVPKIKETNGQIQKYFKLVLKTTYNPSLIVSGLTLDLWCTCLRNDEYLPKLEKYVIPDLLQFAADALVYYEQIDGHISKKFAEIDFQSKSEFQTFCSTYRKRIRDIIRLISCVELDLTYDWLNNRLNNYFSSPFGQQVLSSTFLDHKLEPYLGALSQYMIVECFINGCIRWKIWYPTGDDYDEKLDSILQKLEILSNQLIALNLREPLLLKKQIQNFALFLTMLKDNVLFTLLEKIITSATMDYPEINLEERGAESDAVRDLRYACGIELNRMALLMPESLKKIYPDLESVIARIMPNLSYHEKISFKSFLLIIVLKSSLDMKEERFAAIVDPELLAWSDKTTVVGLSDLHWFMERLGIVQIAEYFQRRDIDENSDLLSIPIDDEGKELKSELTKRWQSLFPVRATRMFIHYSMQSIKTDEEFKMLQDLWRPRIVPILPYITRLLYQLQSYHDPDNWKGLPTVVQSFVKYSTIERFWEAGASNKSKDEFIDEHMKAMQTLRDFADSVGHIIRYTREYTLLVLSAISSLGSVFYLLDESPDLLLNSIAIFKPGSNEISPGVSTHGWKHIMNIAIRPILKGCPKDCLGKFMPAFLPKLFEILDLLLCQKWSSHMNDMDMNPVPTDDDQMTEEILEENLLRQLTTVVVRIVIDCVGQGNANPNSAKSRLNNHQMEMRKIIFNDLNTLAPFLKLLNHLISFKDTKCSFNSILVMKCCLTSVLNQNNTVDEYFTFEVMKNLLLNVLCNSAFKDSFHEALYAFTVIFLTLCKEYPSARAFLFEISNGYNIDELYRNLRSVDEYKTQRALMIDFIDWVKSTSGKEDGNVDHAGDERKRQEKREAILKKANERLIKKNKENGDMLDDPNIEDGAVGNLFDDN

Variants of: B1
Details: with msn5_yeast MSN5, P52918

Which “effect of a mutation on the interaction” value does the source give for MGRTTSEGIHGFVDDLEPKSSILDKVGDFITVNTKRHDGREDFNEQNDELNSQENHNSSENGNENENEQDSLALDDLDRAFELVEGMDMDWMMPSHAHHAPATTATIKPRLLYAPLIHTQSAVPVTIAPNLVATATSTTSANKVTKNKSNSAPYLNKRRGKPGPDSATSLFELPDSVIPTPKPKPKPKQYPKVILPSNSTRRVSPVTAKTSSSAEGVVVASEAPVIAPHGSSHSRSLSKRRSSGALVDDDKRESHKHAEQARRNRLAVALHELASLIPAEWKQQNVSAAPSKATTVEAACRYIRHLQQNVST [S100A;S114A;S128A;S152A;S223A] here?
The value was “disrupting interaction”.
